Experiment: yeast display, Sf9 membrane polyspecificity reagent, FACS + sequencing; frameworks hold sequencing errors
Procedure, shortened: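 Using colony PCR, genes from sorted yeast display clones were amplified, then sequenced on MiSeq at 2 × 250 and filtered by CDR length. The clones had been stained with 10% biotinylated, detergent-solubilized Sf9 membrane reagent for 1 hour at 4 °C and sorted by FACS into low and high (top ~1%) gates on anti-HA and streptavidin fluorescence. Polyreactivity labels come from the gate of origin.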

Sequence	polyreactivity (PSR sort gate)
QVQLVESGGGLVQAGGSLRLSCAASGSTFDRYALGWYRQAPGKERELVAAITRGGSTYYADSVKGRFTISRDNAKNTVYLQLNSLKPDDTAVYYCAAAHWWVRVRGARYSYWGHGTQVTVSS	high polyreactivity
QVQLVESGGGLVQAGGSLRLSCAASGSTFDRYAMGWYRQAPGKERELVAAISWSGGSTYYADSVKGRFTISRDNAKNTVYLQMNSLKREDTAVYYCARRYARITPVYPPLNYWGQGTQVTVSS	high polyreactivity
QVQLVESGGGLVQAGGSLRLSCAASGSTFDRYAMGWYRQAPGKERELVAAITRGGSTYYADSVKGRFTISRDNAKNTVYLQMNSLKPEDTAVYYCAAAQWWFRVRGARYYYWGQGTQVTVSS	high polyreactivity
QVQLVESGGGLVQAGGSLRLSCAASGSTFDSNAMGWYRQAPGKERELVAAIDYSSDSTYYADSVKGRFTISRDNAKNTVYLQMNSLKPEDTAVYYCAADIPPWGGDYWGQGTQVTVSS	low polyreactivity
QVQLVESGGGLVQAGGSLRLSCAASGSTFDSNVMGWYRQAPGKERELVAAINYSGVRTYYADSVKGRFTISRDNAKNTVYLQMNSLKPEDTAVYYCNARLFSYRYPEGGYWGQGTQVTVSS	high polyreactivity
QVQLVESGGGLVQAGGSLRLSCAASGSTFDSNVMGWYRQAPGKEWELVAAISIGDSTNYADSVKGRFTISRDNAKKTVYLQMNSLKPEDTAVYSCNATYSRGGYWYFGFDWGQGTQVTVSS	low polyreactivity
QVQLVESGGGLVQAGGSLRLSCAASGSTFDSYAMGRYRQAPGKERELVAAITNGGSTYYADSVKGRFTISRDNAKNTVYLQMHSLKPEDTAGYYCATDDYLLDNLYDYWGQGTQVTVSS	low polyreactivity
QVQLVESGGGLVQAGGSLRLSCAASGSTFDSYAMGWYRQAPGKERELVAAITTTGGSTFYADSVKGRFTISRDNAKNTVYLQMNSLKPEDTAVYFCAADDGWQEFEYWGQGTQVTVSS	low polyreactivity
QVQLVESGGGLVQAGGSLRLSCAASGSTFDSYVMGLYRQAPGKERELFAAISSDDSTYYADSVKGRFTISRDNAKNTVYLQMNSLKPEDTAVYYCAATNFRDYYWSWKYYYWGQGTQVTVSS	low polyreactivity
QVQLVESGGGLVQAGGSLRLSCAASGSTFDTNAMGWYRQAPGKERELVAAITSGGNTYADSVKGRFTISRDNAKNTVYLQMNSLKPEDTAVYYCAAEDVYTGWYDYWGQGTQVTVSS	low polyreactivity
QVQLVESGGGLVQAGGSLRLSCAASGSTFDTYAMGGYRQAPGKERELVAAISYPGGNTYYADSVKGRFTISRDNAKNTVYLQMNRLKPEDTAVYYCNADVVDGGLAYDYWGQGTQVTVSS	low polyreactivity
QVQLVESGGGLVQAGGSLRLSCAASGSTFDTYAMGWYRPAPGKERELVAAINSGGGTNYADSVKGLFTISRDNAKNTVYLQMNSLKPEDSSVYYCSTDIRRDAGGVDFDYWGQGTQLTVSS	low polyreactivity
QVQLVESGGGLVQAGGSLRLSCAASGSTFDTYAMGWYRPAPGKERELVAAISRSGTSTYYADSVKGRFTISRDNAKNTVYLQMNSLKPEDSAVYYCAAYGPRVNGEIGREYYYWGQGTQVTVSS	low polyreactivity
QVQLVESGGGLVQAGGSLRLSCAASGSTFDTYAMGWYRQAPGKERELVAAISSGGSTNYADSVKGRFTISRDNAKNTVYLQMNSLKPEDTAVYYCADSNKSVFPVYGTLDEYWGQGTQVTVSS	low polyreactivity
QVQLVESGGGLVQAGGSLRLSCAASGSTFDTYAMGWYRQAPGKERELVAAISYSGASTYYADSVKGRFTISRDNAKNTVYLQMNSLKPEDTAVYYCSADGGYYWLYDYWGQGTQVTVSS	low polyreactivity
QVQLVESGGGLVQAGGSLRLSCAASGSTFDVNALGWYSQAPGKDRELVAAISWNSGSTYYADSVKGRFTISRDNAKNTVYLQMNSLKPEDTAVYYCAATYGTGRRSKYGYWGQGTQVTVSS	high polyreactivity
QVQLVESGGGLVQAGGSLRLSCAASGSTFDVNAMGWYRQAPGKERELVAAISFSGGSTYYADSVKGRFTISRDNAKNTVYLQMNSLKPEDTAVYYCADYDYWGQGTQVTVSS	low polyreactivity
QVQLVESGGGLVQAGGSLRLSCAASGSTFDVYAMGWYRQAPGKERELVAAISRSGGSTYYADSVKGRFTISRDNAKNTVYLQMNSLKPEDTAVSYCNARLARWGSDEYNYWGQGTQVTVSS	low polyreactivity
QVQLVESGGGLVQAGGSLRLSCAASGSTFDVYAMGWYRQAPGKERELVAAITWIGGSTYYADSVKGRFTISRDNAKNTVYLQMNSLKPDDTAVYYCARHDYGWVDYWGQGTQVTVSS	high polyreactivity
QVQLVESGGGLVQAGGSLRLSCAASGSTFDVYAMGWYRQAPGKERELVATITGSGGSTYYADSVKGRFTISRDNAKNTVYLQMNSLKPEDTAVYYCAARYPVSGGYDYWGQGTQVTVSS	low polyreactivity
QVQLVESGGGLVQAGGSLRLSCAASGSTFDYNAMGWYRPAPGKERELVAVISSGTRTYYADSVKGRFTISRDNAKNTVYLQMNSLKPEDTAVYFCNKRFYPEHYYWGQGTLVTVSS	high polyreactivity
QVQLVESGGGLVQAGGSLRLSCAASGSTFDYNAMGWYRQAPGKEREFVAAISFSGSSTYYADSVKGRFTISRDNAKNTVYLQMNSLKPEDTAVYYCAKKVFASYRGYGYWGQGTQVTVSS	high polyreactivity
QVQLVESGGGLVQAGGSLRLSCAASGSTFDYNAMGWYRQAPGKERELVAAITTVGITYYADSVKGRFTISRDNAKNTVYLQMNSLKPEDTAVYYCAARSVRYGGRYDYWGQGTQVTVSS	high polyreactivity
QVQLVESGGGLVQAGGSLRLSCAASGSTFDYNAMGWYRQAPGKERELVAGISGGSSTNYADSVKGRFTISRDNAKNTVYLQMNSLKPEDTAVYYCNAQRLPLRYEMDYWGQGTQVTVSS	low polyreactivity
QVQLVESGGGLVQAGGSLRLSCAASGSTFDYNTMGWYRQAPGKERELVAAISESGGSTYYADSVKGRFTISRDNAKNTVYLQMNSLKPEDTAVYYCATDDFGGYFGEYDYWGQGTQVTVSS	low polyreactivity
QVQLVESGGGLVQAGGSLRLSCAASGSTFDYYAMGWYRQAPGKEREFVASINWNGARTYYADSVKGRFTISRDNAKNTVYLQMNSLKPEDTAVYYCAAYTKRYLYNYWGQGTQVTVSS	high polyreactivity
QVQLVESGGGLVQAGGSLRLSCAASGSTFDYYAMGWYRQAPGKERELVAAISSGGSTNYADSVKGRFTISRDNAKNTVYLQMNSLKPEDTAVYYCAKDHAYTSAPHQYASEYYYWGQGTQVTVSS	low polyreactivity
QVQLVESGGGLVQAGGSLRLSCAASGSTFDYYAMGWYRQAPGKERELVAAISWSGGSTYYADSVKGRFTISRDNEKNTVYLQMNSLKPEDTAVYYCAALYSYISGGYIYDYWGQGTQVTVSS	low polyreactivity
QVQLVESGGGLVQAGGSLRLSCAASGSTFDYYAMGWYRQAPGKERELVAAITSTGRTYYADSVKGRFTISRDNAKNTVYLQMNSLKPEDTAVYYCAADLPWGPLFDYWGQGTQVTVSS	low polyreactivity
QVQLVESGGGLVQAGGSLRLSCAASGSTFDYYTMGWYRQAPGKERELVAAISSSGGSTYYADSVTGRFTISRDNAKNTVYLQMNSLKPEDTAVYDCAARGYHYSYLRGDTGYYYWGQGTQVTVSS	low polyreactivity

— the nanobody polyreactivity screen of Harvey et al. (2022)
